Test results reported in patent publication US20080003630.

Molecular target: GST-poly (Glu, Tyr) fusion protein
Sequence (chain, as listed by the source): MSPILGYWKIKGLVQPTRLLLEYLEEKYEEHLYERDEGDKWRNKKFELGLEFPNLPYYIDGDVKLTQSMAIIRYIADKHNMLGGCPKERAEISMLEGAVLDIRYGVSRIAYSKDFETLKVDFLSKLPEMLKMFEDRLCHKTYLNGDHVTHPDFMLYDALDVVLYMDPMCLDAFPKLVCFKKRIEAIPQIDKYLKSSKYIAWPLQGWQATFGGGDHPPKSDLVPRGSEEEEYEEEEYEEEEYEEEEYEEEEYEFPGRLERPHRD

B1: ErbB4 Kinase, intracellular domain (ICD) (protein)
chain: RRKSIKKKRALRRFLETELVEPLTPSGTAPNQAQLRILKETELKRVKVLGSGAFGTVYKGIWVPEGETVKIPVAIKILNETTGPKANVEFMDEALIMASMDHPHLVRLLGVCLSPTIQLVTQLMPHGCLLEYVHEHKDNIGSQLLLNWCVQIAKGMMYLEERRLVHRDLAARNVLVKSPNHVKITDFGLARLLEGDEKEYNADGGKMPIKWMALECIHYRKFTHQSDVWSYGVTIWELMTFGGKPYDGIPTREIPDLLEKGERLPQPPICTIDVYMVMVKCWMIDADSRPKFKELAAEFSRMARDPQRYLVIQGDDRMKLPSPNDSKFFQNLLDEEDLEDMMDAEEYLVPQAFNIPPPIYTSRARIDSNRSEIGHSPPPAYTPMSGNQFVYRDGGFAAEQGVSVPYRAPTSTIPEAPVAQGATAEIFDDSCCNGTLRKPVAPHVQEDSSTQRYSADPTVFAPERSPRGELDEEGYMTPMRDKPKQEYLNPVEENPFVSRRKNGDLQALDNPEYHNASNGPPKAEDEYVNEPLYLNTFANTLGKAEYLKNNILSMPEKAKKAFDNPDYWNHSLPPRSTLQHPDYLQEYSTKYFYKQNGRIRPIVAENPEYLSEFSLKPGTVLPPPPYRHRNTVV
With B1 the “phosphorylation of the substrate with ATP, Western blotting with Anti-Phosphotyrosine clone 4G10” value (from here on “phosphorylation of the substrate”) was “In +of all of (i to vii) in FIG. 1, a single band was observed at a position where the phosphorylated GST-poly (Glu, Tyr) fusion protein appears”.

B2: PDGF Receptor β Kinase, intracellular domain (ICD) (protein)
chain: RYEIRWKVIESVSSDGHEYIYVDPMQLPYDSTWELPRDQLVLGRTLGSGAFGQVVEATAHGLSHSQATMKVAVKMLKSTARSSEKQALMSELKIMSHLGPHLNVVNLLGACTKGGPIYIITEYCRYGDLVDYLHRNKHTFLQHHSDKRRPPSAELYSNALPVGLPLPSHVSLTGESDGGYMDMSKDESVDYVPMLDMKGDVKYADIESSNYMAPYDNYVPSAPERTCRATLINESPVLSYMDLVGFSYQVANGMEFLASKNCVHRDLAARNVLICEGKLVKICDFGLARDIMRDSNYISKGSTFLPLKWMAPESIFNSLYTTLSDVWSFGILLWEIFTLGGTPYPELPMNEQFYNAIKRGYRMAQPAHASDEIYEIMQKCWEEKFEIRPPFSQLVLLLERLLGEGYKKKYQQVDEEFLRSDHPAILRSQARLPGFHGLRSPLDTSSVLYTAVQPNEGDNDYIIPLPDPKPEVADEGPLEGSPSLASSTLNEVNTSSTISCDSPLEPQDEPEPEPQLELQVEPEPELEQLPDSGCPAPRAEAEDSFL
B2 was tested, and the “phosphorylation of the substrate” value was “In +of all of (i to vii) in FIG. 1, a single band was observed at a position where the phosphorylated GST-poly (Glu, Tyr) fusion protein appears”.

B3: VEGF Receptor 1 Kinase, intracellular domain (ICD) (protein)
chain: RKMKRSSSEIKTDYLSIIMDPDEVPLDEQCERLPYDASKWEFARERLKLGKSLGRGAFGKVVQASAFGIKKSPTCRTVAVKMLKEGATASEYKALMTELKILTHIGHHLNVVNLLGACTKQGGPLMVIVEYCKYGNLSNYLKSKRDLFFLNKDAALHMEPKKEKMEPGLEQGKKPRLDSVTSSESFASSGFQEDKSLSDVEEEEDSDGFYKEPITMEDLISYSFQVARGMEFLSSRKCIHRDLAARNILLSENNVVKICDFGLARDIYKNPDYVRKGDTRLPLKWMAPESIFDKIYSTKSDVWSYGVLLWEIFSLGGSPYPGVQMDEDFCSRLREGMRMRAPEYSTPEIYQIMLDCWHRDPKERPRFAELVEKLGDLLQANVQQDGKDYIPINAILTGNSGFTYSTPAFSEDFFKESISAPKFNSGSSDDVRYVNAFKFMSLERIKTFEELLPNATSMFDDYQGDSSTLLASPMLKRFTWTDSKPKASLKIDLRVTSKSKESGLSDVSRPSFCHSSCGHVSEGKRRFTYDHAELERKIACCSPPPDYNSVVLYSTPPI
In the case of B3, the “phosphorylation of the substrate” value is reported as “In +of all of (i to vii) in FIG. 1, a single band was observed at a position where the phosphorylated GST-poly (Glu, Tyr) fusion protein appears”.

B4: IGF-1 Receptor Kinase, intracellular domain (ICD) (protein)
chain: RKRNNSRLGNGVLYASVNPEYFSAADVYVPDEWEVAREKITMSRELGQGSFGMVYEGVAKGVVKDEPETRVAIKTVNEAASMRERIEFLNEASVMKEFNCHHVVRLLGVVSQGQPTLVIMELMTRGDLKSYLRSLRPEMENNPVLAPPSLSKMIQMAGEIADGMAYLNANKFVHRDLAARNCMVAEDFTVKIGDFGMTRDIYETDYYRKGGKGLLPVRWMSPESLKDGVFTTYSDVWSFGVVLWEIATLAEQPYQGLSNEQVLRFVMEGGLLDKPDNCPDMLFELMRMCWQYNPKMRPSFLEIISSIKEEMEPGFREVSFYYSEENKLPEPEELDLEPENMESVPLDPSASSSSLPLPDRHSGHKAENGPGPGVLVLRASFDERQPYAHMNGGRKNERALPLPQSSTC
B4 was tested, and the “phosphorylation of the plate-bound substrate, ELISA with HRP-labeled p-Tyr (PY20) antibody, absorbance (650 nm)” value was “In either case of HER1 and IGF1R, as the tyrosine kinase amount increased, a measured value was increased” and the “phosphorylation of the substrate” value was “In +of all of (i to vii) in FIG. 1, a single band was observed at a position where the phosphorylated GST-poly (Glu, Tyr) fusion protein appears”.
